{
  "source": "patent US20220306683A1",
  "about": "“PROXIMITY-BASED LABELING SYSTEMS AND APPLICATIONS THEREOF” (The Trustees of Princeton University, priority 2019, published 2022)",
  "target": "E3 ligase MDM2 (Homo sapiens, UniProt Q00987)",
  "sequence (Q00987 whole entry)": "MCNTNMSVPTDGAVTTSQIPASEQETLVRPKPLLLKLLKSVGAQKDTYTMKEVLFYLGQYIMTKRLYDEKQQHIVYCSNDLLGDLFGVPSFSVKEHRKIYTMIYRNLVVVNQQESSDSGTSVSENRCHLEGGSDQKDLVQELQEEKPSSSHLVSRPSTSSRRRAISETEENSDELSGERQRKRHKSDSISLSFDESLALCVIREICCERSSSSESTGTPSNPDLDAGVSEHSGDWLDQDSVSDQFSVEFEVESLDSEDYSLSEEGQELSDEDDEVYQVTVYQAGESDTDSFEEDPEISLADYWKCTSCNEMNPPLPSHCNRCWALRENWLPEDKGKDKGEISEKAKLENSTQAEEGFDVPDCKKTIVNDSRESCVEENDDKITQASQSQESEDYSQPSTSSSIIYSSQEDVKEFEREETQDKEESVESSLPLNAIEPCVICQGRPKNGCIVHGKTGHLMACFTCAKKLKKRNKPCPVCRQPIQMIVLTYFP",
  "test": "Peptide-photocatalyst conjugate labeling of MDM2 versus BSA",
  "details": "peptide conjugated to photocatalyst through azido-lysine",
  "note": "Ends that are not written are not given here.",
  "data": [
    {"substance": "ATSP7041: α-helical stapled cyclic peptide targeting MDM2, conjugated to the photocatalyst through a modified azido-lysine (KLTFAEYWAQAASAA; staple (positions not given here); also: stapled, places not given here, photocatalyst conjugated via azido-lysine, place not given here)", "values": [
      {"measurement": "enrichment of target protein MDM2 compared to free photocatalyst control", "value": 3, "unit": "fold"}
    ]}
  ]
}
